Results: PMC11231019, “A pH-dependent shift of redox cofactor specificity in a benzyl alcohol dehydrogenase of aromatoleum aromaticum EbN1” (Applied Microbiology and Biotechnology, 2024)

Tests used:
[1] = target: T1, BaDH (benzyl alcohol dehydrogenase) (Aromatoleum aromaticum, UniProt Q5P459); experiment: photometric NADH formation, […] nm; Michaelis-Menten with substrate inhibition fit; type: biochemical; settings: substrate inhibition constant; NAD+, pH 8.0, 30 °C
T1 construct: gene adh; full-length, C-terminal Twin-Strep-tag kept, expressed in E. coli BL21(DE3), Strep-tactin purified; Zn (catalytic) and Zn/Fe (structural)
T1 sequence (Q5P459 1-362): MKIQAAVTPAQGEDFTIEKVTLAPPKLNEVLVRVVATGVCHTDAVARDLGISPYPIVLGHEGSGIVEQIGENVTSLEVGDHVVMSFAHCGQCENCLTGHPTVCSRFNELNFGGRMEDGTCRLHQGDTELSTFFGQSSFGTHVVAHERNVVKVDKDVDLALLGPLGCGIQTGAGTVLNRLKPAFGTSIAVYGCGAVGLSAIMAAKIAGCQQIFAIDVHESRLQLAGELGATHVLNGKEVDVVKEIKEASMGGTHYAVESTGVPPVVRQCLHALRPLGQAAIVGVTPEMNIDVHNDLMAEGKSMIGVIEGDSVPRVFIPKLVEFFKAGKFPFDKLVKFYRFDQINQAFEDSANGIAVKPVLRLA

purified protein [2] = substrate: NC(=O)C1=CN([C@@H]2O[C@H](COP(=O)(O)OP(=O)(O)OC[C@H]3O[C@@H](n4cnc5c(N)ncnc54)[C@H](O)[C@@H]3O)[C@@H](O)[C@H]2O)C=CC1; experiment: purified protein; type: biochemical, Aromatoleum aromaticum; settings: apparent, fixed benzaldehyde, pH 7.0, 30 °C, extrapolated, saturation not reached, probably underestimated per authors (text: no reliable constants), varied: cofactor
purified protein [3] = substrate: OCc1ccccc1; experiment: purified protein; type: biochemical, Aromatoleum aromaticum; settings: apparent, oxidation with NAD+, pH 8.0, 30 °C, substrate inhibition, kcat called overestimated by authors
[4] = substrate: NC(=O)C1=CN([C@@H]2O[C@H](COP(=O)(O)OP(=O)(O)OC[C@H]3O[C@@H](n4cnc5c(N)ncnc54)[C@H](OP(=O)(O)O)[C@@H]3O)[C@@H](O)[C@H]2O)C=CC1; experiment: photometric NADPH consumption; Hill fit with substrate inhibition; type: biochemical, Aromatoleum aromaticum; settings: apparent, fixed benzaldehyde, pH 5.5, 30 °C, cooperative, Hill n 1.38, Kis constrained to Km, kcat called overestimated by authors, varied: cofactor
Source text: photometric NADPH consumption; Hill fit with substrate inhibition on BaDH (benzyl alcohol dehydrogenase)

[5] = substrate: NC(=O)c1ccc[n+]([C@@H]2O[C@H](COP(=O)(O)OP(=O)(O)OC[C@H]3O[C@@H](n4cnc5c(N)ncnc54)[C@H](OP(=O)(O)O)[C@@H]3O)[C@@H](O)[C@H]2O)c1; experiment: photometric NADPH formation; Hill fit with substrate inhibition; type: biochemical, Aromatoleum aromaticum; settings: apparent, fixed benzyl alcohol, pH 6.5, 30 °C, cooperative, Hill n 2.44, Kis constrained to Km, kcat called overestimated by authors, varied: cofactor
Source text: photometric NADPH formation; Hill fit with substrate inhibition on BaDH (benzyl alcohol dehydrogenase)

[6] = substrate: NC(=O)c1ccc[n+]([C@@H]2O[C@H](COP(=O)(O)OP(=O)(O)OC[C@H]3O[C@@H](n4cnc5c(N)ncnc54)[C@H](O)[C@@H]3O)[C@@H](O)[C@H]2O)c1; experiment: photometric NADH formation; Michaelis-Menten fit; type: biochemical, Aromatoleum aromaticum; settings: apparent, fixed benzyl alcohol, pH 8.0, 30 °C, varied: cofactor
Source text: photometric NADH formation; Michaelis-Menten fit on BaDH (benzyl alcohol dehydrogenase)

[7] = substrate: O=Cc1ccccc1; experiment: photometric NADH consumption; Michaelis-Menten with substrate inhibition fit; type: biochemical, Aromatoleum aromaticum; settings: apparent, reduction with NADH, pH 7.0, 30 °C, Kis constrained to >= Km, kcat called overestimated by authors
Source text: photometric NADH consumption; Michaelis-Menten with substrate inhibition fit on BaDH (benzyl alcohol dehydrogenase)

With `OCc1ccccc1` [BAlc, benzyl alcohol] the “Kis” value [1] was 4.37 mM.

B1: BaDH (benzyl alcohol dehydrogenase) (Aromatoleum aromaticum EbN1) (protein)
chain: MKIQAAVTPAQGEDFTIEKVTLAPPKLNEVLVRVVATGVCHTDAVARDLGISPYPIVLGHEGSGIVEQIGENVTSLEVGDHVVMSFAHCGQCENCLTGHPTVCSRFNELNFGGRMEDGTCRLHQGDTELSTFFGQSSFGTHVVAHERNVVKVDKDVDLALLGPLGCGIQTGAGTVLNRLKPAFGTSIAVYGCGAVGLSAIMAAKIAGCQQIFAIDVHESRLQLAGELGATHVLNGKEVDVVKEIKEASMGGTHYAVESTGVPPVVRQCLHALRPLGQAAIVGVTPEMNIDVHNDLMAEGKSMIGVIEGDSVPRVFIPKLVEFFKAGKFPFDKLVKFYRFDQINQAFEDSANGIAVKPVLRLA
notes: full-length, C-terminal Twin-Strep-tag kept, expressed in E. coli BL21(DE3), Strep-tactin purified; Zn (catalytic) and Zn/Fe (structural)
Molecule B1 has a Km (purified protein [2]) of 3690 µM, a Vmax (purified protein [2]) of 320 µmol/min/mg and a kcat (purified protein [2]) of 222 s⁻¹. The kcat/Km (purified protein [2]) was 60000 M⁻¹ s⁻¹, the Km (purified protein [3]) was 3620 µM and the Vmax (purified protein [3]) was 410 µmol/min/mg. The kcat (purified protein [3]) was 693 s⁻¹, the kcat/Km (purified protein [3]) was 191000 M⁻¹ s⁻¹ and the K0.5 [4] was 3.42 mM. It also gave a Vmax [4] of 159 µmol/min/mg, a kcat [4] of 110 s⁻¹ and a kcat/Km [4] of 32000 M⁻¹ s⁻¹. It also gave a K0.5 [5] of 2.39 mM, a Vmax [5] of 54.1 µmol/min/mg and a kcat [5] of 37.5 s⁻¹. It also gave a kcat/Km [5] of 16000 M⁻¹ s⁻¹, a Km [6] of 1670 µM and a Vmax [6] of 84.2 µmol/min/mg. The kcat [6] was 58.4 s⁻¹, the kcat/Km [6] was 35000 M⁻¹ s⁻¹ and the Km [7] was 1780 µM. The Vmax [7] was 345 µmol/min/mg, the kcat [7] was 239 s⁻¹ and the kcat/Km [7] was 134000 M⁻¹ s⁻¹.
